Results as given in patent publication US20240100134.

Key:
[1] = target: T1, recombinant human plasminogen (not fused to Fc, wild-type)
T1 chain: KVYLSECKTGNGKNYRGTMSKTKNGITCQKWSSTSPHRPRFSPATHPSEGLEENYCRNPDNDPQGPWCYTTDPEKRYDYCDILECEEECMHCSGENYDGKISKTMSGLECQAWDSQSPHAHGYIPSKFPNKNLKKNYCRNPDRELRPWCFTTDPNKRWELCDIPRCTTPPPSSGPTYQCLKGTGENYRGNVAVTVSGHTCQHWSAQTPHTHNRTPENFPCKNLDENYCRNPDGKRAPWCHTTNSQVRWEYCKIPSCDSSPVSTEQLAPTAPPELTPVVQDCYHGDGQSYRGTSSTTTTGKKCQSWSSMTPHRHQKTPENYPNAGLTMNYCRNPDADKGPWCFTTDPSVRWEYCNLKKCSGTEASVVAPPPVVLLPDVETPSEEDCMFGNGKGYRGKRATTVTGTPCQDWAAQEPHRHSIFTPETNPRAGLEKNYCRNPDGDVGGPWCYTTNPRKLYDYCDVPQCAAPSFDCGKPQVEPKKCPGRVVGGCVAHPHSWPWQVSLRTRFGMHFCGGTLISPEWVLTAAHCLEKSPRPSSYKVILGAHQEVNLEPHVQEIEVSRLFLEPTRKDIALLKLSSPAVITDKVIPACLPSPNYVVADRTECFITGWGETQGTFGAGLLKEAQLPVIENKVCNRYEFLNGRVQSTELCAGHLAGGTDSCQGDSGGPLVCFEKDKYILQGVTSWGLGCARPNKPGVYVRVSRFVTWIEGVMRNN

[2] = target: recombinant plasminogen-linker-Fc fusion (human plasminogen, QA linker GQAGQAS, Fc)

B1: tissue-type plasminogen activator (protein)
chain: SYQVICRDEKTQMIYQQHQSWLRPVLRSNRVEYCWCNSGRAQCHSVPVKSCSEPRCFNGGTCQQALYFSDFVCQCPEGFAGKCCEIDTRATCYEDQGISYRGTWSTAESGAECTNWNSSALAQKPYSGRRPDAIRLGLGNHNYCRNPDRDSKPWCYVFKAGKYSSEFCSTPACSEGNSDCYFGNGSAYRGTHSLTESGASCLPWNSMILIGKVYTAQNPSAQALGLGKHNYCRNPDGDAKPWCHVLKNRRLTWEYCDVPSCSTCGLRQYSQPQFRIKGGLFADIASHPWQAAIFAKHRRSPGERFLCGGILISSCWILSAAHCFQERFPPHHLTVILGRTYRVVPGEEEQKFEVEKYIVHKEFDDDTYDNDIALLQLKSDSSRCAQESSVVRTVCLPPADLQLPDWTECELSGYGKHEALSPFYSERLKEAHVRLYPSSRCTSQHLLNRTVTDNMLCAGDTRSGGPQANLHDACQGDSGGPLVCLNDGRMTLVGIISWGLGCGQKDVPGVYTKVTNYLDWIRDNMRP
Michelis-Menten analysis of activation (KM and Vmax), 10 mM EACA [1]: the kinetics of rPlg and rPlg-Fc activation are similar (as indicated by the KM and Vmax) | activation measured by the hydrolysis of plasmin fluorogenic substrate H-Ala-Phe-Lys-AMC [1]: In the presence of tPA or uPA, comparable hydrolytic activity for rPlg and rPlg-Fc is observed | Michelis-Menten analysis of activation (KM and Vmax), 10 mM EACA [2]: the kinetics of rPlg and rPlg-Fc activation are similar (as indicated by the KM and Vmax) | activation measured by the hydrolysis of plasmin fluorogenic substrate H-Ala-Phe-Lys-AMC [2]: In the presence of tPA or uPA, comparable hydrolytic activity for rPlg and rPlg-Fc is observed
